Values belong to the molecule of their own block, whether it stands above or below them.
Assays:
[1] = molecular target: full-length wild-type gephyrin (Geph^WT) (human) (UniProt Q9NQX3); test: SEC; analytical SEC (Superdex 6 increase or Superose 6 increase 10/300 GL) in grid buffer (25 mM Tris pH 7.5, 250 mM NaCl, 25 mM Arg/Glu, 5 mM β-mercaptoethanol, 1.5% sucrose); Geph^WT with a 3-fold excess of GlyR-loop; no filaments seen in SEC
[2] = molecular target: the molecule itself; test: cell-based or functional assay

stoichiometry N [1]: 3
Molecule: full-length wild-type gephyrin (Geph^WT) (from UniProt Q9NQX3 1-736) (natural protein)

B1: isolated gephyrin E-domain, wild type (GephE^WT, residues 327–736) (domain or fragment, human, UniProt Q9NQX3 327-736, looked up)
chain: DKAFITVLEMTPVLGTEIINYRDGMGRVLAQDVYAKDNLPPFPASVKDGYAVRAADGPGDRFIIGESQAGEQPTQTVMPGQVMRVTTGAPIPCGADAVVQVEDTELIRESDDGTEELEVRILVQARPGQDIRPIGHDIKRGECVLAKGTHMGPSEIGLLATVGVTEVEVNKFPVVAVMSTGNELLNPEDDLLPGKIRDSNRSTLLATIQEHGYPTINLGIVGDNPDDLLNALNEGISRADVIITSGGVSMGEKDYLKQVLDIDLHAQIHFGRVFMKPGLPTTFATLDIDGVRKIIFALPGNPVSAVVTCNLFVVPALRKMQGILDPRPTIIKARLSCDVKLDPRPEYHRCILTWHHQEPLPWAQSTGNQMSSRLMSMRSANGLLMLPPKTEQYVELHKGEVVDVMVIGRL
sedimentation assay of in vitro phase separation (LLPS) with GlyR-LD: GephE in the pellet fraction against the sample without GlyR-LD [2]: ~10 fold

Source: article PMC12441120, “Gephyrin filaments represent the molecular basis of inhibitory postsynaptic densities” (Nature Communications, 2025)
